Experimental findings from patent US20150344535A1, “NEUROTROPHIN-TYROSINE KINASE RECEPTOR SIGNALING” (THE UNIVERSITY OF QUEENSLAND, priority 2012, published 2015) are described below.

The target in experiment [1] is TrkA endogenously expressed in PC12 cells (UniProt P35739). Briefly: cell-based or functional assay.
The target of experiment [2] is TrkAK538A. Briefly: cell-based or functional assay.

Sequence of TrkA endogenously expressed in PC12 cells (P35739 33-799 limits assumed): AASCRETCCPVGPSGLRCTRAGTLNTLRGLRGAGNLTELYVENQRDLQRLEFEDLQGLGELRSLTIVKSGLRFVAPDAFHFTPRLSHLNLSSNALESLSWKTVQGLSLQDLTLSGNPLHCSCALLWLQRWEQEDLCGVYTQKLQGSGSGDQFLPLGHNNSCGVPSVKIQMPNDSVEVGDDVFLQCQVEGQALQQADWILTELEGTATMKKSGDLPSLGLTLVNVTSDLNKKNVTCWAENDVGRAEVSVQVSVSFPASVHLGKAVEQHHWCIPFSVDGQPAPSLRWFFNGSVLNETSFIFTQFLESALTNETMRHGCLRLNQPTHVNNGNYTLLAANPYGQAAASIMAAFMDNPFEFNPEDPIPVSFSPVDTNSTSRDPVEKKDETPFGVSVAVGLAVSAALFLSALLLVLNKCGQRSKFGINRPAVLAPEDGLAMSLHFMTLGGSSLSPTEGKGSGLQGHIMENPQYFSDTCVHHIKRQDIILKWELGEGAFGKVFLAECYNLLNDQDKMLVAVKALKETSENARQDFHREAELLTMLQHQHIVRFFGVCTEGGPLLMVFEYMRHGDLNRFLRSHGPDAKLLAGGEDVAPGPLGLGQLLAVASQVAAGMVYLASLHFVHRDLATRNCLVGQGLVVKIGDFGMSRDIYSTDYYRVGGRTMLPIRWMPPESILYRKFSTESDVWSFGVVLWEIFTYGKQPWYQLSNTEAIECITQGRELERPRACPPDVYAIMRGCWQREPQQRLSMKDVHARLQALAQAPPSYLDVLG

As to “p75^ICD-YFP (from UniProt P08138 273-427) (receptor)”, the neurite outgrowth of PC12 cells overexpressing the construct, 100 ng/ml NGF, 5 days in experiment [1] was found to be 60%. The neurite outgrowth of PC12 cells co-expressing p75^ICD and TrkAK538A after NGF treatment in experiment [2] lay in the range of 10 to 40 µm.
